In IntAct's records for PubMed 31515488:

Assays:
ubql1_human UBQLN1 = ubql1_human UBQLN1 (UniProt Q9UMX0)
mdfi_human MDFI = mdfi_human MDFI (UniProt Q99750)
otx1_human OTX1 = otx1_human OTX1 (UniProt P32242)
fhl3_human FHL3 = fhl3_human FHL3 (UniProt Q13643)
traf2_human TRAF2 = traf2_human TRAF2 (UniProt Q12933)
lhx8_human LHX8 = lhx8_human LHX8 (UniProt Q68G74)
dpyl3_human DPYSL3 = dpyl3_human DPYSL3 (UniProt Q14195)
dpyl5_human DPYSL5 = target: T1, dpyl5_human DPYSL5 (UniProt Q9BPU6)
T1 sequence: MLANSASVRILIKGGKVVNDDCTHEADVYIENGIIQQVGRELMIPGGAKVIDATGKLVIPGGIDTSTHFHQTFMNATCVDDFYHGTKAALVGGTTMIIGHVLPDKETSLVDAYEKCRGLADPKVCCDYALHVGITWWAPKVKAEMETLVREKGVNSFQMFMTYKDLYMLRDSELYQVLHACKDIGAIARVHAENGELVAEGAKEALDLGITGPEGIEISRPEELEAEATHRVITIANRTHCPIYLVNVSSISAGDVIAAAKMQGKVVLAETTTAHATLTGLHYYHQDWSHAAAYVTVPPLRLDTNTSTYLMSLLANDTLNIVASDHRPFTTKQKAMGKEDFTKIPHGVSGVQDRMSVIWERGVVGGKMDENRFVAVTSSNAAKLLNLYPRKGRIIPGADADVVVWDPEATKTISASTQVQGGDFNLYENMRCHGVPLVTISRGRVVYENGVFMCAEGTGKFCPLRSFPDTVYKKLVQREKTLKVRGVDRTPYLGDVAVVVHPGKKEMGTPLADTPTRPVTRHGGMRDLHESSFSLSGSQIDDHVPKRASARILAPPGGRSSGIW

gors2_human GORASP2 = gors2_human GORASP2 (UniProt Q9H8Y8)
rtraf_human RTRAF = rtraf_human RTRAF (UniProt Q9Y224)
zbt14_human ZBTB14 = target: T2, zbt14_human ZBTB14 (UniProt O43829)
T2 sequence: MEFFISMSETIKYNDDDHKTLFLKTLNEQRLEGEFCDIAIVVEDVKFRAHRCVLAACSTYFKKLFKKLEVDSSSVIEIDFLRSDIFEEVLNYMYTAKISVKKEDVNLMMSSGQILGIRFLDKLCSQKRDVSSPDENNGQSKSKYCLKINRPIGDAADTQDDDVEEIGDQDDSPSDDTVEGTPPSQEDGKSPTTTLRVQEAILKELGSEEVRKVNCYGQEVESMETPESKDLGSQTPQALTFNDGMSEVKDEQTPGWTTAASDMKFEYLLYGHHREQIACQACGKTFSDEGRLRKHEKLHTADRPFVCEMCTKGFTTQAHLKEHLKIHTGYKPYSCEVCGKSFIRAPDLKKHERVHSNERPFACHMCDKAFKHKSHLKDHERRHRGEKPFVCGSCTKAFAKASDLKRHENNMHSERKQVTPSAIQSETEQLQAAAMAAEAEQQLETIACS

trim1_human MID2 [1] = target: trim1_human MID2 (UniProt Q9UJV3)
mtus2_human MTUS2 = mtus2_human MTUS2 (UniProt Q5JR59)
hnrl1_human HNRNPUL1 = hnrl1_human HNRNPUL1 (UniProt Q9BUJ2)
erep1_human ENTREP1 = erep1_human ENTREP1 (UniProt Q15884)
fxl18_human FBXL18 = fxl18_human FBXL18 (UniProt Q96ME1)
pdli7_human PDLIM7 = pdli7_human PDLIM7 (UniProt Q9NR12)
zn446_human ZNF446 [2] = target: zn446_human ZNF446 (UniProt Q9NWS9)
cxcl9_human CXCL9 = target: T3, cxcl9_human CXCL9 (UniProt Q07325)
T3 sequence: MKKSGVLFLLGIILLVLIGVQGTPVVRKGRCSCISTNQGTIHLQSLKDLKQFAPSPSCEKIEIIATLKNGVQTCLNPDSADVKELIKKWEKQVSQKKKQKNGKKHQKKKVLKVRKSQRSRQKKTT

tmm79_human TMEM79 = target: T4, tmm79_human TMEM79 (UniProt Q9BSE2)
T4 sequence: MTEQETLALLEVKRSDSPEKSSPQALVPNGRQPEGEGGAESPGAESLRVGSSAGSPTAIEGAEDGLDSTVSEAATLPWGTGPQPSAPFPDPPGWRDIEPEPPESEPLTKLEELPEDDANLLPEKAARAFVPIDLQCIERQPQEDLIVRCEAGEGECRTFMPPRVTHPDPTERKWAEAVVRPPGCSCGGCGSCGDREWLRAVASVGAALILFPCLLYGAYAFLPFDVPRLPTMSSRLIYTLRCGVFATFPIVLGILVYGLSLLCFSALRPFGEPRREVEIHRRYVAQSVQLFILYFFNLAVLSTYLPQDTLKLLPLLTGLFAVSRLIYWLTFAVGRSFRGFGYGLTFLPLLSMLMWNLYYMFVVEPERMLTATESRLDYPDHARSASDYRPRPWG

rbtn2_human LMO2 = rbtn2_human LMO2 (UniProt P25791)
dzip3_human DZIP3 = dzip3_human DZIP3 (UniProt Q86Y13)
trim1_human MID2 [3] = target: trim1_human MID2 (UniProt Q9UJV3); remark: listed apart in the source
zn446_human ZNF446 [4] = target: zn446_human ZNF446 (UniProt Q9NWS9); remark: listed apart in the source
ntaq1_human NTAQ1 = ntaq1_human NTAQ1 (UniProt Q96HA8)
dest_human DSTN = target: T5, dest_human DSTN (UniProt P60981)
T5 sequence: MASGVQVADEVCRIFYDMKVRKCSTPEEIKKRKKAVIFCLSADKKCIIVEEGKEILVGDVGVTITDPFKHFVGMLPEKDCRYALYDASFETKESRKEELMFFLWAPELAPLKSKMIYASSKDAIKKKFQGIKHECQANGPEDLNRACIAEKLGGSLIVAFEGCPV

cof2_human CFL2 = cof2_human CFL2 (UniProt Q9Y281)
nasp_human NASP = nasp_human NASP (UniProt P49321)
hxb5_human HOXB5 = hxb5_human HOXB5 (UniProt P09067)
aapk1_human PRKAA1 = aapk1_human PRKAA1 (UniProt Q13131)
cry2_human CRY2 = target: T6, cry2_human CRY2 (UniProt Q49AN0)
T6 sequence: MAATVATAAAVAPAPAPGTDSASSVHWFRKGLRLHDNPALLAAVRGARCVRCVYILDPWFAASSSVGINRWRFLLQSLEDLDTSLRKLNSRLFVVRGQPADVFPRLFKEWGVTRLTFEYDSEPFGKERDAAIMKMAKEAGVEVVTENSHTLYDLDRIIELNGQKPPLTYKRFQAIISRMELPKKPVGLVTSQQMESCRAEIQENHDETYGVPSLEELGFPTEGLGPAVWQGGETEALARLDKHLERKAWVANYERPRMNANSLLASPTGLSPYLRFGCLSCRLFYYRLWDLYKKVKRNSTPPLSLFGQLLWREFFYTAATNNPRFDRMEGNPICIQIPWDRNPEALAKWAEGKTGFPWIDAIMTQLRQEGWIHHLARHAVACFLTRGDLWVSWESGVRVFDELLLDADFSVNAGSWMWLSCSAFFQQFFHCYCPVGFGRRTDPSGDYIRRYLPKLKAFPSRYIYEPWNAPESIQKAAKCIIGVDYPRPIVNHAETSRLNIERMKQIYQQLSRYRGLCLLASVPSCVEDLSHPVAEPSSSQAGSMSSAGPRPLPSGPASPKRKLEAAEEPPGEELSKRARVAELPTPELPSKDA

ctbp2_human CTBP2 = ctbp2_human CTBP2 (UniProt P56545)
kr101_human KRTAP10-1 = kr101_human KRTAP10-1 (UniProt P60331)
efs_human EFS = efs_human EFS (UniProt O43281)
fund1_human FUNDC1 = fund1_human FUNDC1 (UniProt Q8IVP5)
kcc2d_human CAMK2D = kcc2d_human CAMK2D (UniProt Q13557)
thap1_human THAP1 = thap1_human THAP1 (UniProt Q9NVV9)
zn446_human ZNF446 [5] = target: zn446_human ZNF446 (UniProt Q9NWS9); remark: listed apart in the source

## Frizzled-7 (Homo sapiens) (from UniProt O75084) P285S
ubql1_human UBQLN1
  effect of a mutation on the interaction: with no effect

## Nuclear transition protein 2 (Homo sapiens), Q05952 R131W
mdfi_human MDFI
  effect of a mutation on the interaction: with no effect

## Cartilage oligomeric matrix protein (Homo sapiens), P49747 N386D
otx1_human OTX1
  effect of a mutation on the interaction: with no effect

## Isoform 1 of Krueppel-like factor 3 (Homo sapiens), P57682-1 C322F
fhl3_human FHL3
  effect of a mutation on the interaction: disrupting interaction strength
traf2_human TRAF2
  effect of a mutation on the interaction: disrupting interaction strength
lhx8_human LHX8
  effect of a mutation on the interaction: disrupting interaction strength

## Dihydropyrimidinase-related protein 2 (Homo sapiens) (from UniProt Q16555) A267S
dpyl3_human DPYSL3
  effect of a mutation on the interaction: with no effect
dpyl5_human DPYSL5
  effect of a mutation on the interaction: with no effect
gors2_human GORASP2
  effect of a mutation on the interaction: with no effect

## Protein FAM98A (Homo sapiens), Q8NCA5 S283G
rtraf_human RTRAF
  effect of a mutation on the interaction: with no effect

## Small ribosomal subunit protein eS7 (Homo sapiens) (from UniProt P62081) R106Q
zbt14_human ZBTB14
  effect of a mutation on the interaction: with no effect

## Zinc finger protein 785 (Homo sapiens), A8K8V0 R212C
trim1_human MID2 [1]
  effect of a mutation on the interaction: with no effect
mtus2_human MTUS2
  effect of a mutation on the interaction: with no effect

## Isoform 1 of NEDD4-like E3 ubiquitin-protein ligase WWP2 (Homo sapiens), O00308-1 V717M
hnrl1_human HNRNPUL1
  effect of a mutation on the interaction: with no effect
erep1_human ENTREP1
  effect of a mutation on the interaction: with no effect
fxl18_human FBXL18
  effect of a mutation on the interaction: with no effect
pdli7_human PDLIM7
  effect of a mutation on the interaction: with no effect

## Zinc finger protein 397 (Homo sapiens), Q8NF99 P169S
zn446_human ZNF446 [2]
  effect of a mutation on the interaction: with no effect

## Surfactant protein C (Homo sapiens) (from UniProt P11686) R167Q
cxcl9_human CXCL9
  effect of a mutation on the interaction: with no effect
tmm79_human TMEM79
  effect of a mutation on the interaction: with no effect

## Zinc finger protein 24 (Homo sapiens), P17028 T85M
rbtn2_human LMO2
  effect of a mutation on the interaction: with no effect
dzip3_human DZIP3
  effect of a mutation on the interaction: with no effect
trim1_human MID2 [3]
  effect of a mutation on the interaction: with no effect
zn446_human ZNF446 [4]
  effect of a mutation on the interaction: with no effect

## Actin, cytoplasmic 1 (Homo sapiens) (from UniProt P60709) E364K
ntaq1_human NTAQ1
  effect of a mutation on the interaction: disrupting interaction strength
dest_human DSTN
  effect of a mutation on the interaction: disrupting interaction strength
cof2_human CFL2
  effect of a mutation on the interaction: with no effect

## Histone H3.1 (Homo sapiens) (from UniProt P68431) A128G
nasp_human NASP
  effect of a mutation on the interaction: with no effect

## C-terminal-binding protein 1 (Homo sapiens) (from UniProt Q13363) A436T
hxb5_human HOXB5
  effect of a mutation on the interaction: with no effect
aapk1_human PRKAA1
  effect of a mutation on the interaction: with no effect
cry2_human CRY2
  effect of a mutation on the interaction: with no effect
ctbp2_human CTBP2
  effect of a mutation on the interaction: with no effect

## Zinc finger protein 559 (Homo sapiens), Q9BR84 L6W
kr101_human KRTAP10-1
  effect of a mutation on the interaction: with no effect

## Tyrosine-protein kinase Fyn (Homo sapiens), P06241-3 V410M
efs_human EFS
  effect of a mutation on the interaction: with no effect

## Tyrosine-protein kinase Yes (Homo sapiens), P07947 V52L
fund1_human FUNDC1
  effect of a mutation on the interaction: with no effect

## Large ribosomal subunit protein uL11m (Homo sapiens) (from UniProt Q9Y3B7) R142C
kcc2d_human CAMK2D
  effect of a mutation on the interaction: with no effect
thap1_human THAP1
  effect of a mutation on the interaction: with no effect

## Zinc finger and SCAN domain-containing protein 16 (Homo sapiens), Q9H4T2 R137Q
zn446_human ZNF446 [5]
  effect of a mutation on the interaction: with no effect
